{
  "source": "paper PMC12196469",
  "about": "“Synthesis and Characterization of Transferrin Receptor-Targeted Peptide Combination SN-38 and Rucaparib Conjugate for the Treatment of Glioblastoma” (Pharmaceutics, 2025)",
  "key": {"[1]": {"target": "T1, human liver cathepsin B (Homo sapiens, UniProt P07858)", "T1 construct": "human liver cathepsin B stock (0.47 mg/mL, 324 U/mg, Merck Millipore); purchased Merck Millipore; host or cells: human liver (tissue-derived, as the product name says)", "assay": "In vitro cleavage of T7-SN-38-rucaparib by exogenous cathepsin B (RP-HPLC)", "assay_type": "in vitro ADME", "details": "sodium acetate buffer with EDTA and DTT, pH 6.0, 37 °C, conjugate 210 µM, n = 3", "protocol": "The cleavage profile of T7-SN-38-rucaparib was evaluated by following a published method. Using this method, 11 μL of human liver cathepsin B stock (0.47 mg/mL, 324 U/mg, Merck Millipore) was activated in 27.2 μL of activation buffer (30 mM DTT, 15 mM EDTA in H2O) for 15 min. This mixture was added to 4.9 mL of reaction buffer (150 mM sodium acetate buffer, 12 mM EDTA, 24 mM DTT in H2O, pH 6.0). Cleavage was initiated by adding the cathepsin B solution to the T7-SN-38-rucaparib stock solution (8) in DMSO (final concentration 210 µM). The reaction was allowed to proceed at 37 °C, and samples were taken and analyzed by RP-HPLC at predetermined intervals (0–24 h). Changes in peak areas of the pure drugs and conjugate at their characteristic retention times to observe the disappearance of T7-SN-38-rucaparib and the appearance of free SN-38 and rucaparib over a 24 h period were monitored."}, "[2]": {"assay": "Control incubation of conjugate in enzyme-free buffer pH 6.0", "assay_type": "in vitro ADME", "details": "pH 6.0, no cathepsin B, RP-HPLC, over 24 h", "protocol": "The cleavage profile of T7-SN-38-rucaparib was evaluated by following a published method. […] This mixture was added to 4.9 mL of reaction buffer (150 mM sodium acetate buffer, 12 mM EDTA, 24 mM DTT in H2O, pH 6.0). […] The reaction was allowed to proceed at 37 °C, and samples were taken and analyzed by RP-HPLC at predetermined intervals (0–24 h). Changes in peak areas of the pure drugs and conjugate at their characteristic retention times to observe the disappearance of T7-SN-38-rucaparib and the appearance of free SN-38 and rucaparib over a 24 h period were monitored."}, "[3]": {"assay": "XTT cytotoxicity on U87MG cells", "protocol": "U87MG cells (10,000 cells per well) were seeded in 96-well plates and allowed to attach for 24 h. […] To evaluate cytotoxicity, XTT solution was added to each well per manufacturer protocols at 24 and 72 h after treatment. Following a 3-h incubation period, the absorbance of each well was measured at 450 nm using a Biotek ELx808 microplate reader (Lonza, Basel, Switzerland). Average absorbance values of the cells treated with different concentrations of test agents were normalized to those of the untreated cell controls. GraphPad Prism 10 was used to plot percent cell viability.\nU87MG cells (10,000/well), seeded in 96-well plates, were allowed to attach for 24 h. The cells, incubated at 37 °C, were then treated with rucaparib solution at concentrations ranging from 5 nM to 160 nM. To evaluate cytotoxicity, XTT solution was added to each well at 24 and 72 h after treatment per manufacturer protocol. Following a 3-h incubation period, the absorbance of each well was measured at 450 nm using a Biotek ELx808 microplate reader (Lonza). The average absorbance of the cells treated with different concentrations of rucaparib were normalized to those of untreated cell controls. […]\nIC50 values were calculated by concentration-response curve fitting using Microsoft Excel 16.77 (Microsoft Corp). […] Differences between groups were determined by ANOVA, with a p-value < 0.05 deemed statistically significant."}, "[4]": {"tested_on": "U87MG cells with blocked transferrin receptors", "assay": "T7 competition assay with or without exogenous cathepsin B on TfR-blocked U87MG cells", "details": "20 nM drug equivalents, exogenous cathepsin B added, 72 h, XTT, n = 4", "protocol": "In these studies, blocking was done as reported for the transferrin receptor blocking studies above. […] In an additional step, exogenous cathepsin B was added to the treated wells. In a parallel experiment, cells were treated with the same test agents at the same concentrations but without exogenous cathepsin B. XTT assays were conducted at 72 h following the manufacturer’s protocol for cytotoxicity. Percent cell viability was calculated, and the data were plotted using GraphPad Prism 10."}, "[5]": {"assay": "XTT cytotoxicity on HEK-293 cells", "protocol": "(§1) HEK-293 cells (15,000/well), seeded in 96-well plates, were allowed to attach for 24 h. […] To evaluate cytotoxicity, XTT solution was added to each well at 24 and 72 h after treatment per manufacturer protocol. Following a 3-h incubation period, the absorbance of each well was measured at 450 nm using a Biotek ELx808 microplate reader (Lonza). Average absorbance values of the cells treated with different concentrations of test agents were normalized to those of untreated cell controls, and percent cell viability was plotted using GraphPad Prism 10.\n(§2) IC50 values were calculated by concentration-response curve fitting using Microsoft Excel 16.77 (Microsoft Corp). Data represent mean ± standard deviation (SD) unless otherwise indicated. Differences between groups were determined by ANOVA, with a p-value < 0.05 deemed statistically significant."}, "[6]": {"tested_on": "HEK-293 cells", "assay": "XTT cytotoxicity on HEK-293 cells", "details": "HEK-293 cells, 24 h, p < 0.05, n = 4", "protocol": "as §1, §2"}},
  "data": [
    {"smiles": "CCc1c2c(nc3ccc(OCc4ccc(NC(=O)[C@H](C)NC(=O)[C@@H](NC(=O)CCCCCNC(=O)COCCOCCOCCNC(=O)CCCCC(=O)N5Cc6ccccc6-c6c(nnn6CCOCCOCCOCCOCCC(=O)N[C@@H](CSC6CC(=O)N(CCC(=O)NCCOCCOCCOCCOCCC(=O)NCCCCCC(=O)N[C@H](C(=O)N[C@@H](C)C(=O)Nc7ccc(COC(=O)N(C)Cc8ccc(-c9[nH]c%10cc(F)cc%11c%10c9CCNC%11=O)cc8)cc7)C(C)C)C6=O)C(=O)NCCOCCOCCOCC(=O)N[C@@H](Cc6c[nH]cn6)C(=O)N[C@@H](C)C(=O)N[C@H](C(=O)N[C@@H](Cc6ccc(O)cc6)C(=O)N6CCC[C@H]6C(=O)N[C@@H](CCCNC(=N)N)C(=O)N[C@@H](Cc6c[nH]cn6)C(=O)O)[C@@H](C)CC)-c6ccccc65)C(C)C)cc4)cc13)-c1cc3c(c(=O)n1C2)COC(=O)[C@]3(O)CC", "note": "(stereo partly drawn) [T7-SN-38-rucaparib]", "values": [
      {"measurement": "Percent Cleaved", "setting": "[1]; time 1 h", "value": 17.8, "unit": "%"},
      {"measurement": "Percent Cleaved", "setting": "[1]; time 4 h", "value": 43.8, "unit": "%"},
      {"measurement": "Percent Cleaved", "setting": "[1]; time 8 h", "value": 61.6, "unit": "%"},
      {"measurement": "Percent Cleaved", "setting": "[1]; time 24 h", "value": 87.3, "unit": "%"},
      {"measurement": "release of free drugs in enzyme-free buffer", "setting": "[2]", "value": "< 10", "unit": "%"},
      {"measurement": "IC50", "setting": "[3]", "value": 22.3, "unit": "nM"},
      {"measurement": "cytotoxicity with exogenous cathepsin B", "setting": "[4]", "value": "comparable cytotoxicity to the cells treated with free drugs"},
      {"measurement": "IC50", "setting": "[5]", "value": 116, "unit": "nM"},
      {"measurement": "cytotoxicity, conjugate versus free drugs", "setting": "[6]", "value": "significantly lower cytotoxicity compared to free SN-38-rucaparib"}
    ]}
  ]
}
